Measurements taken from patent publication US11692025 (UNIVERSITY COURT OF THE UNIVERSITY OF ABERDEEN, dated 2023).

Key:
hen egg lysozyme [1] = biological target: T1, hen egg lysozyme (hen, UniProt P00698 19-147); test: BIAcore
T1 construct: also called HEL

CSA = biological target: T2, CSA (monkey, UniProt A2V9Z4 25-608, limits assumed); test: BIAcore, mean ± SE
T2 construct: also called monkey albumin

human serum albumin [2] = biological target: T3, human serum albumin (human, UniProt P02768 25-609); test: BIAcore, mean ± SE
T3 construct: also called HSA; HAS

mouse serum albumin [3] = biological target: T4, mouse serum albumin (mouse, UniProt P07724 25-608); test: BIAcore, mean ± SE
T4 construct: also called MSA

rat serum albumin [4] = biological target: T5, rat serum albumin (rat, UniProt P02770 25-608); test: BIAcore, mean ± SE
T5 construct: also called RSA

human serum albumin [5] = biological target: T3, human serum albumin; test: BIAcore, pH 7.4, monomeric 6xHis-tagged VNAR
mouse serum albumin [6] = biological target: T4, mouse serum albumin; test: BIAcore, pH 7.4, monomeric 6xHis-tagged VNAR
rat serum albumin [7] = biological target: T5, rat serum albumin; test: BIAcore, pH 7.4, monomeric 6xHis-tagged VNAR
human serum albumin [8] = biological target: T3, human serum albumin; test: BIAcore, pH 6.0, monomeric 6xHis-tagged VNAR
mouse serum albumin [9] = biological target: T4, mouse serum albumin; test: BIAcore, pH 6.0, monomeric 6xHis-tagged VNAR
rat serum albumin [10] = biological target: T5, rat serum albumin; test: BIAcore, pH 6.0, monomeric 6xHis-tagged VNAR
hen egg lysozyme [11] = biological target: T1, hen egg lysozyme; test: Biacore, monomeric VNAR
human serum albumin [12] = biological target: T3, human serum albumin; test: BIAcore
mouse serum albumin [13] = biological target: T4, mouse serum albumin; test: BIAcore

T1 sequence (P00698 19-147): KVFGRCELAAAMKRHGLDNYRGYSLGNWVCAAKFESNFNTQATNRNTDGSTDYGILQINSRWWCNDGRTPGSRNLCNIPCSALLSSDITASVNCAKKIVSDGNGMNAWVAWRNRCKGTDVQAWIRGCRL
T2 sequence (A2V9Z4 25-608 limits assumed): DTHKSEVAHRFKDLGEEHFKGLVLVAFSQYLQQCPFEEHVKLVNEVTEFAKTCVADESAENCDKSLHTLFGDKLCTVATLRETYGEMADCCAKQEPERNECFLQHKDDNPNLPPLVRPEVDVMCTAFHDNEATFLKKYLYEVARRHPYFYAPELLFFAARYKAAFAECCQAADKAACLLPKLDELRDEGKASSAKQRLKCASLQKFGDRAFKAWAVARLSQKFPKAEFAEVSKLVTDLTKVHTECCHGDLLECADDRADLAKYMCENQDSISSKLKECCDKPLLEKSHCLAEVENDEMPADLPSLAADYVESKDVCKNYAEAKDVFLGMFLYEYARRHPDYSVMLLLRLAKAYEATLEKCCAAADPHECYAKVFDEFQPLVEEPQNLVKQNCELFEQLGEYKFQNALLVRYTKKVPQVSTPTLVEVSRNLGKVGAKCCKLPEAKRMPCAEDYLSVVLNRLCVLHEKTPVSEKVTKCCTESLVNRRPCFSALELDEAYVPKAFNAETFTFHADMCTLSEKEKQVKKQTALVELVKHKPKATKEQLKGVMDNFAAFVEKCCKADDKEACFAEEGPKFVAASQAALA
T4 sequence (P07724 25-608 limits assumed): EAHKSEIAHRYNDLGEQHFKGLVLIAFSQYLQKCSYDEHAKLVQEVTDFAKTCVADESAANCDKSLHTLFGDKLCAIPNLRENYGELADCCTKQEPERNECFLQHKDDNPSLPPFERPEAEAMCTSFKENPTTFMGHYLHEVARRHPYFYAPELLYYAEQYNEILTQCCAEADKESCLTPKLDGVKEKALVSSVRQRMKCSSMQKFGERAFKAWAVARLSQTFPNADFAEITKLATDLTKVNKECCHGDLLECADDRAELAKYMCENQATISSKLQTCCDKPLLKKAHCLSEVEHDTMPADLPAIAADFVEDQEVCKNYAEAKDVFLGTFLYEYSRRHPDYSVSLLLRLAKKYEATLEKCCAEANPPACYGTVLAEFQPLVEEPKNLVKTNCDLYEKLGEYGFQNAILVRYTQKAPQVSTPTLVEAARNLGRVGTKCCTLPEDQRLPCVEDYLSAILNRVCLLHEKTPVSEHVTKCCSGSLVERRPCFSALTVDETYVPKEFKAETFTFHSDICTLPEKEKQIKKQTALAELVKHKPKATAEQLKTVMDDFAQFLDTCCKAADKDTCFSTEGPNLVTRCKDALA
T5 sequence (P02770 25-608 limits assumed): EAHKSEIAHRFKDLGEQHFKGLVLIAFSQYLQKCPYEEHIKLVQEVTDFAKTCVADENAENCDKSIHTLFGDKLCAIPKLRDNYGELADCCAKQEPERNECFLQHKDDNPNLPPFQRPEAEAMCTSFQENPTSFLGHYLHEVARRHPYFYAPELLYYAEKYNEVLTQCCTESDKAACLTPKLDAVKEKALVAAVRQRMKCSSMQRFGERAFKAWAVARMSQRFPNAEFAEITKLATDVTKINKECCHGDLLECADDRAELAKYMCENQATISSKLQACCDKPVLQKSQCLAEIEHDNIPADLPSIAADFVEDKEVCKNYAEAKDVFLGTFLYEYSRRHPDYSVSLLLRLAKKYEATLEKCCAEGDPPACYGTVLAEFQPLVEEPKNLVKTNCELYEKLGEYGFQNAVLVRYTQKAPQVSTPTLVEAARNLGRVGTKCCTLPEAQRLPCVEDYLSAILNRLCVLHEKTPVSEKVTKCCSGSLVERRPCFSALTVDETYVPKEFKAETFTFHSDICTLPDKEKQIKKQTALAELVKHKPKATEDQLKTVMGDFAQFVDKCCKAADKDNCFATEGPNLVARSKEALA

B1: E06-AAA-6xHis (VNAR)
VNAR: TRVDQTPRTATRETGESLTINCVLTDTSYPLYSTYWYRKNPGSSNKEQISISGRYVESVNKGTKSFSLRIKDLTVADSATYICRAMGTNIWTGDGAGTVLTVNA
notes: Shark VNAR single domain against serum albumin; also called wild-type E06; monomeric 6xHis-tagged E06
binding result (hen egg lysozyme [1]): no binding | Kd (CSA): 0.219 nM | koff (CSA): 0.000584 s⁻¹ | kon (CSA): 2.68e+06 M⁻¹ s⁻¹ | Kd (human serum albumin [2]): 0.189 nM | koff (human serum albumin [2]): 0.000583 s⁻¹ | kon (human serum albumin [2]): 3.09e+06 M⁻¹ s⁻¹ | Kd (mouse serum albumin [3]): 0.74 nM | koff (mouse serum albumin [3]): 0.00171 s⁻¹ | kon (mouse serum albumin [3]): 2.32e+06 M⁻¹ s⁻¹ | Kd (rat serum albumin [4]): 1.34 nM | koff (rat serum albumin [4]): 0.00301 s⁻¹ | kon (rat serum albumin [4]): 2.24e+06 M⁻¹ s⁻¹ | Kd (human serum albumin [5]): 0.19 nM | koff (human serum albumin [5]): 0.000655 s⁻¹ | kon (human serum albumin [5]): 3.48e+06 M⁻¹ s⁻¹ | Kd (mouse serum albumin [6]): 0.83 nM | koff (mouse serum albumin [6]): 0.0018 s⁻¹ | kon (mouse serum albumin [6]): 2.18e+06 M⁻¹ s⁻¹ | Kd (rat serum albumin [7]): 1.45 nM | koff (rat serum albumin [7]): 0.0032 s⁻¹ | kon (rat serum albumin [7]): 2.21e+06 M⁻¹ s⁻¹ | Kd (human serum albumin [8]): 0.14 nM | koff (human serum albumin [8]): 0.00159 s⁻¹ | kon (human serum albumin [8]): 1.12e+07 M⁻¹ s⁻¹ | Kd (mouse serum albumin [9]): 0.33 nM | koff (mouse serum albumin [9]): 0.00323 s⁻¹ | kon (mouse serum albumin [9]): 9.85e+06 M⁻¹ s⁻¹ | Kd (rat serum albumin [10]): 0.34 nM | koff (rat serum albumin [10]): 0.00433 s⁻¹ | kon (rat serum albumin [10]): 1.26e+07 M⁻¹ s⁻¹

B2: 5A7IVabc-AAA-6xHis (VNAR)
VNAR: ARVDQSPSSLSASVGDRVTITCVLRDASYALGSTCWYQQKPGKAPKSISKGGRYSESVNSGSKSFTLTISSLQPEDFATYYCGLGVAGGYCDYALCSSRYAECGQGTKVEIKA
notes: Humanized 5A7 VNAR, monomeric; also called humanized 5A7-IVabc
Kd (hen egg lysozyme [11]): 14.8 nM | koff (hen egg lysozyme [11]): 0.173 s⁻¹ | kon (hen egg lysozyme [11]): 1.17e+07 M⁻¹ s⁻¹

B3: 2V-E06 (VNAR, part only; not given: naive VNAR 2V and linker, not shown: small tags and cut ends)
chain, part: TRVDQTPRTATRETGESLTINCVLTDTSYPLYSTYWYRKNPGSSNKEQISISGRYVESVNKGTKSFSLRIKDLTVADSATYICRAMGTNIWTGDGAGTVLTVNAAAHHHHHH
Kd (CSA): 0.91 nM | koff (CSA): 0.000682 s⁻¹ | kon (CSA): 820000 M⁻¹ s⁻¹ | Kd (human serum albumin [2]): 0.721 nM | koff (human serum albumin [2]): 0.000641 s⁻¹ | kon (human serum albumin [2]): 953000 M⁻¹ s⁻¹ | Kd (mouse serum albumin [3]): 2.49 nM | koff (mouse serum albumin [3]): 0.00214 s⁻¹ | kon (mouse serum albumin [3]): 862000 M⁻¹ s⁻¹ | Kd (rat serum albumin [4]): 5.95 nM | koff (rat serum albumin [4]): 0.00344 s⁻¹ | kon (rat serum albumin [4]): 623000 M⁻¹ s⁻¹

B4: 5A7-AAA-6xHis (VNAR)
VNAR: ARVDQTPRSVTKETGESLTINCVLRDASYALGSTCWYRKKSGEGNEESISKGGRYVETVNSGSKSFSLRINDLTVEDGGTYRCGLGVAGGYCDYALCSSRYAECGDGTAVTVNA
notes: Type I shark VNAR against hen egg lysozyme, monomeric; also called parental 5A7; anti-HEL 5A7
binding result (human serum albumin [12]): no binding | binding result (mouse serum albumin [13]): no binding
